According to PMC1557820 (Nucleic Acids Research, 2006):

Target: T1, N-terminal domain of S. cerevisiae methionyl-tRNA synthetase (residues 1-160) (S. cerevisiae, UniProt P00958 1-160)
T1 sequence (looked up): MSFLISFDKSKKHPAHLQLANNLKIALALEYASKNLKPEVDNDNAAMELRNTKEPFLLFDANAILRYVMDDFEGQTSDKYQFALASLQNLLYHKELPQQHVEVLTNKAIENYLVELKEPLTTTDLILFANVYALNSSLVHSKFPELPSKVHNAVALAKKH
Experiment: SEC

stoichiometry N: 1
B1: N-terminal domain of S. cerevisiae Arc1p (residues 1-122) (domain or fragment, UniProt P46672 1-122, looked up)
chain: MSDLVTKFESLIISKYPVSFTKEQSAQAAQWESVLKSGQIQPHLDQLNLVLRDNTFIVSTLYPTSTDVHVFEVALPLIKDLVASSKDVKSTYTTYRHILRWIDYMQNLLEVSSTDKLEINHD
